Key:
[1] = target: SLX4 endogenous in Xenopus egg extract (Xenopus laevis (endogenous in Xenopus egg extract)); test: co-depletion by immunodepletion
[2] = target: SLX1 endogenous in Xenopus egg extract (Xenopus laevis (endogenous in Xenopus egg extract)) (UniProt Q0IH86); test: co-depletion by immunodepletion
Chain of UniProt Q0IH86 (Q0IH86 whole entry): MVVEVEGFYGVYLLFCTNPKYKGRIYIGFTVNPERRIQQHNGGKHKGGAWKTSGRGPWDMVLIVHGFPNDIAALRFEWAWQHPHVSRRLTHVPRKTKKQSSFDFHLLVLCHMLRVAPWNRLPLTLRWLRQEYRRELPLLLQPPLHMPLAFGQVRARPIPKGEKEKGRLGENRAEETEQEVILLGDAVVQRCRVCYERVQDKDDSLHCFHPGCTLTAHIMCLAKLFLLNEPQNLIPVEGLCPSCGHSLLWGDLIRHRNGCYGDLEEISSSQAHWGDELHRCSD

Substance	percent co-depleted [1]	percent co-depleted [2]
XPF-ERCC1 endogenous in Xenopus egg extract (complex)	50%	50%
SLX4 endogenous in Xenopus egg extract (natural protein)	–	90%
